In patent US20240010735A1 (EISAI R AND D MANAGEMENT, published 2024):

Key:
Experiment in all cases: ELISA: Fc-His proteins (1 nM) captured on anti-6-His antibody, antibody A 10 µg/mL with human IgG 100 µg/mL, HRP anti-mouse IgG, OD450 as % of mouse EphA4-Fc-His
[1] = molecular target: T1, mouse EphB4 extracellular region-Fc-His protein (mouse; human, UniProt P54761 16-539)
T1 construct: extracellular domain; not shown: Fc region of human IgG1; histidine tag
T1 sequence (looked up): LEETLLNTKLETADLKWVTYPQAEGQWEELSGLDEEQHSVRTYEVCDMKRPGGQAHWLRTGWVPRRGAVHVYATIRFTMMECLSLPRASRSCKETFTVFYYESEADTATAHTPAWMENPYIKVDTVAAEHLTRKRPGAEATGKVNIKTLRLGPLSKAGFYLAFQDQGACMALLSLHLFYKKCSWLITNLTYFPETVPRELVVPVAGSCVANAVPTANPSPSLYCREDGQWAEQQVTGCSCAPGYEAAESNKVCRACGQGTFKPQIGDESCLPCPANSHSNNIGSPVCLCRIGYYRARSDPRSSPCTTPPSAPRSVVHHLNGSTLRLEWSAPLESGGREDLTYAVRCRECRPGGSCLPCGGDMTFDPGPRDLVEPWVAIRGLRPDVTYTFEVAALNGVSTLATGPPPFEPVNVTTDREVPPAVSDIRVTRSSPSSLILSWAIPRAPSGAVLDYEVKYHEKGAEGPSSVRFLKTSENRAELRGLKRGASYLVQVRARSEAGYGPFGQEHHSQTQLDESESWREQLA
Method: (§1) Rabbit anti-6-His antibodies (Bethyl Laboratories) were coated onto the wells of a 96-well plate (Nunc). After incubating at 4° C. overnight, the wells were blocked at room temperature for 1 hour by 1% Block Ace (DS Pharma Biomedical). After washing 3 times with 0.05% Tween 20/PBS (Thermo […]), each Eph receptor of mouse extracellular region-Fc-His protein (final concentration 1 nM) was seeded into each well, and incubated at room temperature for 1 hour. After washing 3 times, human IgG solution (100 μg/mL, Sigma) and antibody A (10 μg/mL) were supplemented to the wells, and incubated at room temperature for 1 hour. Horseradish peroxidase-labeled donkey anti-mouse IgG antibody (Jackson ImmunoResearch Laboratories) was added, and incubated at room temperature for 1 hour. After washing 3 times, TMBZ (3,3′,5,5′-tetramethylbenzidine, Sigma) solution was added to the wells, and upon confirmation of modest coloring, an equal amount of quenching solution (1 N H₂SO₄, Wako Pure Chemicals) was added to the wells, and absorbance at 450 nm was read by a microplate reader (PerkinElmer).

[2] = molecular target: T2, mouse EphB1 extracellular region-Fc-His protein (mouse; human, UniProt Q8CBF3 18-540)
T2 construct: extracellular domain; not shown: Fc region of human IgG1; histidine tag
T2 sequence (looked up): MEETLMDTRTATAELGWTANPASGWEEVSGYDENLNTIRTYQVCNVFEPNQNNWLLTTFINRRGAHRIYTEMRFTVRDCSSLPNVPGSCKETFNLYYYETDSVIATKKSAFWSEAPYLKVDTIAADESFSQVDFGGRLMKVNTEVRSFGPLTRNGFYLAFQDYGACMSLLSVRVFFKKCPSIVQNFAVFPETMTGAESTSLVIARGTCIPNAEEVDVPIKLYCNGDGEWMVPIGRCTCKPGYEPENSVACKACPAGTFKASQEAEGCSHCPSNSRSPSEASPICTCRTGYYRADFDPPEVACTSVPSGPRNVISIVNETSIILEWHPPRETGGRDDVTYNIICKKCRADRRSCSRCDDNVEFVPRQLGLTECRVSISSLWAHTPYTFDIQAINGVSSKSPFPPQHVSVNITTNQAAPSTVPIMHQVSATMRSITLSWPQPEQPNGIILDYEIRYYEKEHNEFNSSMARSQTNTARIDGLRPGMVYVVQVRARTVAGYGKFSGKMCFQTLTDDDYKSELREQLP
Method: as §1

[3] = molecular target: T3, mouse EphB6 extracellular region-Fc-His protein (mouse; human, UniProt O08644 33-591)
T3 construct: extracellular domain; not shown: Fc region of human IgG1; histidine tag
T3 sequence (looked up): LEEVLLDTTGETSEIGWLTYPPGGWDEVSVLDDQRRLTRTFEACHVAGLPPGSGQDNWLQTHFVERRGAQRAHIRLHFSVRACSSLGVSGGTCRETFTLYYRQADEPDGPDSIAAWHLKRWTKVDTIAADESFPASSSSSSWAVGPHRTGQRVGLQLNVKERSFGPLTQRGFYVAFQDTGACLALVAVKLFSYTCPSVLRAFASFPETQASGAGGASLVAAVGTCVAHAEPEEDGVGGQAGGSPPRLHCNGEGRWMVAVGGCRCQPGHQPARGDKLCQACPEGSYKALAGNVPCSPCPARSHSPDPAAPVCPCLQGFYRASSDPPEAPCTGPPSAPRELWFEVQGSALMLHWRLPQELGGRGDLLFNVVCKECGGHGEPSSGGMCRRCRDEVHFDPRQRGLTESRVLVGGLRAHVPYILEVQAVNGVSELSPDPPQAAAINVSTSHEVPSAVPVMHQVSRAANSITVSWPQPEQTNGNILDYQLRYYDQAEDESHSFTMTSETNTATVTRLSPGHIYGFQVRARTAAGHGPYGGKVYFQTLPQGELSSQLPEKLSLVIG
Method: as §1

[4] = molecular target: T4, mouse EphA2 extracellular region-Fc-His protein (mouse, UniProt Q03145 26-538)
T4 construct: extracellular domain; Cloned into a pcDNA 3.1 vector separately from the other mouse Eph receptors; not shown: Fc; histidine tag
T4 sequence (Q03145 26-538): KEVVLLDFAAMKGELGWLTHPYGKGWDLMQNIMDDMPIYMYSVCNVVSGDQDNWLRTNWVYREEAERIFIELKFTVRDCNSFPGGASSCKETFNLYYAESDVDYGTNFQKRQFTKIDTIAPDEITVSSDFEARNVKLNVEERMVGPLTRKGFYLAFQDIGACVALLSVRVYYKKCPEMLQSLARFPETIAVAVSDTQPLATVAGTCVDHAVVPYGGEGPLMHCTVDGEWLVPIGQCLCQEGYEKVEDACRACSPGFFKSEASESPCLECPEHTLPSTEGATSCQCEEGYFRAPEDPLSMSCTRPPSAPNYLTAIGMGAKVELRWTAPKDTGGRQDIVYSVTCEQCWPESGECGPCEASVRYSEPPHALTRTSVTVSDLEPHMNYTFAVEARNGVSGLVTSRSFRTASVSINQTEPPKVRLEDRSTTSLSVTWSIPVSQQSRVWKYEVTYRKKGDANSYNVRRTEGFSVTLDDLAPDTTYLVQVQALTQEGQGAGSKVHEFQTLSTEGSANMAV
Method: as §1

Measured: binding result

B1: mouse anti-EphA4 monoclonal antibody (antibody A) (antibody, mouse IgG1, kappa, V domains shown)
VH: QVQLKQSGPSLVQPSQSLSITCTVSGFSLTRYGVHWVRQSPGKGLEWLGVIWRGGSTDYNAAFMSRLSITKDNSKSQVFFKMNSLQADDTAIYYCAKESLFGVYYDYGYYSMDYWGQGTSVTVSS
VL: DIQMTQSPSSLSASLGERVSLTCRASQEISGYLSWLQQKPDGTIKRLIYAASTLDSGVPKRFSGSRSGSDYSLTISSLESEDFADYYCLQYASYPLTFGAGTKLELKR
notes: purified from hybridoma supernatant
no binding (tested: 10 µg/mL): [1] | [2] | [3] | [4]
